B1: recombinant IdeZ (NEB P0770S or Genscript) (protein)
chain: MKTIAYPNKPHSLSAGLLTAIAIFSLASSNITYADDYQRNATEAYAKEVPHQITSVWSKGVTPLTPEQFRYNNEDVIHAPYLAHQGWYDITKAFDGKDNLLCGAATAGNMLHWWFDQNKTEIEAYLSKHPEKQKIIFNNQELFDLKAAIDTKDSQTNSQLFNYFRDKAFPNLSARQLGVMPDLVLDMFINGYYLNVFKTQSTDVNRPYQDKDKRGGIFDAVFTRGDQTTLLTARHDLKNKGLNDISTIIKQELTEGRALALSHTYANVSISHVINLWGADFNAEGNLEAIYVTDSDANASIGMKKYFVGINAHGHVAISAKKIEGENIGAQVLGLFTLSSGKDIWQKLS
B2: recombinant GST-IdeZ (N-terminally GST tagged IdeZ fusion) (protein)
chain: B1 chain

How the values were obtained:
[1] = biological target: IgG from dog serum
[2] = biological target: IgG present within human serum
[3] = biological target: IgG present within mouse serum
[4] = biological target: IgG present within primate serum
[5] = biological target: human intravenous immunoglobulin (IVIG)

Protein	IgG cleavage, SDS-PAGE [1]	IgG cleavage, reducing SDS-PAGE with Coomassie stain [2]	IgG cleavage, reducing SDS-PAGE with Coomassie stain (Donors 1-5) [2]	IgG cleavage, reducing SDS-PAGE with Coomassie stain [3]	IgG cleavage, reducing SDS-PAGE with Coomassie stain [4]	IVIG cleavage in vitro, reducing SDS-PAGE with Coomassie stain [5]	IgG cleavage, SDS-PAGE with Coomassie stain (heavy chain cleavage product ~31 kDa) [2]	IgG cleavage, SDS-PAGE with Coomassie stain (heavy chain cleavage product ~31 kDa) [4]
B1	IdeZ can cleave IgG from dog serum	IgG present within serum was cleaved by IdeZ	IdeZ also cleaved IgG in serum samples from additional human patients (Donors 1-5)	IgG present within serum was cleaved by IdeZ	IgG present within serum was cleaved by IdeZ	IdeZ cleaved human IVIG in vitro		
B2						IdeZ cleaved human IVIG in vitro	GST-IdeZ cleaved IgG present within human and primate serum	GST-IdeZ cleaved IgG present within human and primate serum
